Here are results for four substances from PMC3196588.

The Kd is the free concentration of one partner at which half of the binding sites on the other are occupied at equilibrium, for simple one-to-one binding. Low values mean a tighter complex, high ones a looser complex.

Bounds are passed on as bounds.

For experiment [1], the target named is C3S mutant of human galectin-1 (human) (UniProt P09382). Put plainly: affinity chromatography; galectin-1 C3S coupled to 1 ml NHS-activated Hi-Trap column; 0.1 ml serum from metastatic breast cancer patients in 1.9 ml PBS circulated 30 min on ice; wash 32 column volumes PBS; elution with 150 mM lactose; bound proteins identified by SDS-PAGE, MALDI-TOF MS and western blot, IgM and haptoglobin quantitated by ELISA. Background: Immunoblotting shows a protein as a band on a membrane.

Experiment [2] shares this target. Put plainly: affinity chromatography; galectin-1 C3S (or its site B mutants) coupled to 1 ml NHS-activated Hi-Trap column; 0.1 ml serum from healthy individuals in 1.9 ml PBS circulated 30 min on ice; wash 32 column volumes PBS; elution with 150 mM lactose; bound proteins identified by SDS-PAGE, MALDI-TOF MS and western blot, IgM and haptoglobin quantitated by ELISA.

The target is the same in experiment [3]. Put plainly: fluorescence polarisation; fluorescence anisotropy inhibition assay: haptoglobin as inhibitor of the interaction of galectin-1 or mutants with a fluorescein tagged thiodigalactoside-amid (tdga) probe; Kd from inhibitory potency, haptoglobin counted as the dimer. (In general: Polarisation of emitted light reports the rotation of a fluorescent probe.)

For experiment [4] the target is unchanged. In words: affinity chromatography; galectin-1 C3S (or C3S N34D) coupled to 1 ml column; 2 mg haptoglobin (pooled from human plasma) in 2 ml PBS circulated 30 min on ice; wash 32 column volumes PBS; elution with 150 mM lactose; unbound fraction rechromatographed.

With “IgM (human serum) (from UniProt P01591 23-159) (complex)”, the percent of IgM bound to galectin-1 (mean, cancer sera) in experiment [1] was 28%. The percent of IgM bound to galectin-1 (mean, healthy sera) in experiment [2] was determined as 37%.
Take “galectin-1 binding fraction of haptoglobin (from UniProt P00738 19-160; P00738 162-406) (complex)”: in experiment [3], the equilibrium dissociation constant (Kd) was less than 1000 nM.
On to “galectin-1 non-binding fraction of haptoglobin (from UniProt P00738 19-160; P00738 162-406) (complex)”, for which the percent bound to the column when rechromatographed in experiment [4] was less than 1%.
Take “haptoglobin (human, unfractionated) (from UniProt P00738 19-160; P00738 162-406) (complex)”: the percent bound to the column in experiment [4] came out at 30%. This substance also had a Kd in experiment [3] of 2500 nM. In experiment [1], this substance displayed a percent of haptoglobin bound to galectin-1 (average, cancer sera) of 50%. In experiment [2], this substance gave a percent of haptoglobin bound to galectin-1 (average, control sera) of 30%.
